The EC50 is the concentration that produces a half-maximal response.

The text below walks through data of US20220372112A1 (KEYMED BIOSCIENCES, published 2022).

Positions count from the first letter of the chain named.

B1: 15F9 (antibody, V domains shown)
VH: EIQLVQSGPELKKPGETVKISCKASGYTFTNYGINWVKQAPGKGLKWMGWINPNTGETTYAEEFKGRFALSWKTSASTAYLQINNLKNEDTATYFCARLYYGNRFDYWGQGTTLTVSS
VL: DIVMTQSPSSLTVTAGEKVTMSCKSSQSLLNSGNQRNYLTWYQQKPGQPPKLLIYWASTRESGVPDRFTGSGSGTDFTLTISSVQAEDLAVYYCQNAYYYPLTFGAGTKLEIK
notes: also called Clone 15F9; 15F9 Chimera
B2: 18A9 (antibody, V domains shown)
VH: QVQLQQSGREVVRPGTSVKVSCKPSGYAFTNYLIDWVKQRPGQGLEWIGGINPGSGDTVYNEKFKAKATLTADKSSMTANMQLSSLTSDDSAVYFCARRVRGNSFDSWGQGTLVTVSA
VL: B1 VL with T5S, R36K, T75K, V91L, A97N, Y99F, I112L
notes: also called Clone 18A9; 18A9 Chimera
B3: 13A8 (antibody, V domains shown)
VH: EVKLVESGGGLVRPGGSLKVSCAASGITFSRYAISWVRQTPEKRLEWVATISSGDSYTYYLDSVKGRFTISRDDAKNTLYLQMSSLRSEDTAMYYCGRLGYGNAMDYWGQGTSVTVSS
VL: B1 VL with D1N, V3M, R36K, A97D, Y99S
notes: also called Clone 13A8
B4: 18D10 (antibody, V domains shown)
VH: DVQLQESGPGLVKPSQSLSLTCTVTGYSITSNYAWNWIRQFPGNKLEWMGYINYSGNTNYNPSLKSRISITRDTSKNQFFLQLNSVTAEDTATYYCATSYYGNSFIYWGQGTLVTVSA
VL: B1 VL with R36K, Y99S, Y100F, L102W, A106G
notes: also called Clone 18D10; 18D10 Chimera
B5: 14H11 (antibody, V domains shown)
VH: EVQLVESGGGLVKPGGSLKLSCAVSGFTINNYGMSWVRQTPEKRLEWVATIIGGGSSTYYPDSLKGRFTISRDNAKNNLYLQMSSLRSEDTALYYCVRLYFGNSFAYWGQGTLVTVSA
VL: B1 VL with M21V, L30S, A97N, Y99F, I112L
notes: also called Clone 14H11
B6: 15A7 (antibody, V domains shown)
VH: QVQLQQSGAELVKPGYSVKLSCKASGYTFTNFGINWVRQRPEKGLEWIGWIFPGDGTTKYNENFKGKATLTTDKSSSTAYMQLSRLTSEDSAVYFCARFYYGNSFVNWGQGTLVTVSA
VL: B1 VL with M21L, S28T, R36K, Y55H, A97N, Y99F
notes: also called Clone 15A7

For one assay, the target named is T1, human Claudin 18.1 (human, UniProt P56856 1-261).
T1 construct: whole, on cells
T1 sequence (looked up): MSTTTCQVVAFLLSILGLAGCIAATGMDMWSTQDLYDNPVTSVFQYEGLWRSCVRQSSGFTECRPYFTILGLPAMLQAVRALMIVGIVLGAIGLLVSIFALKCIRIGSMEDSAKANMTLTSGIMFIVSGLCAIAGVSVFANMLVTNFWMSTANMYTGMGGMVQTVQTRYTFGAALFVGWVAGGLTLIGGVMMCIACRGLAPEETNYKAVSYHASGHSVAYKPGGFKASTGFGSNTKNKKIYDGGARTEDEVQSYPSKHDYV
The experiment in a line: flow cytometry on HEK293-Claudin 18.1 cells, chimeric IgG1. Here is the method: (§1) The HEK293-Claudin 18.1 cells, HEK293-Claudin 18.2 cells and HEK293 cells at logarithmic growth phase were taken, after digesting, added at 5×10⁴ cells/100 μL to the U-shaped 96-well plate, centrifuged at 1100 rpm for 3 minutes, the supernatant was discarded, the cells were gently patted and loosed, 50 μL of antibody diluted according to the series was added to each well (antibody concentration starts from 100 nM, 5 times dilution in 8 series), and incubate at 4° C. for 1 hour. After the incubation, 140 μL 0.5% BSA was added to each well to wash 3 times, the secondary antibody AlexaFluro647 anti-human IgG (Jackson ImmunoResearch, catalog number: 109-606-170) was added with 30 μL/well, and incubated at 4° C. for 40 minutes. After the incubation, 140 μL 0.5% BSA was added to each well to wash 3 times, and finally resuspended each well with 50 μL PBS for flow cytometry (iQue Screener) detection.
In general terms: In flow cytometry, cells or beads pass a laser one at a time.
Consider B1, for which the binding result is reported as “no binding (tested: 100 nM (highest concentration tested))”.

With B2, the binding result was “no binding (tested: 100 nM (highest concentration tested))”.

For B3, the binding result was “no binding (tested: 100 nM (highest concentration tested))”.

As for B4, the binding result is “no binding (tested: 100 nM (highest concentration tested))”.

Turning to B5, the binding result is “no binding (tested: 100 nM (highest concentration tested))”.

With B6, the binding result was “no binding (tested: 100 nM (highest concentration tested))”.

A further assay addresses T2, human Claudin 18.2 (human, UniProt P56856-2 1-261).
T2 construct: whole, on cells
T2 sequence (looked up): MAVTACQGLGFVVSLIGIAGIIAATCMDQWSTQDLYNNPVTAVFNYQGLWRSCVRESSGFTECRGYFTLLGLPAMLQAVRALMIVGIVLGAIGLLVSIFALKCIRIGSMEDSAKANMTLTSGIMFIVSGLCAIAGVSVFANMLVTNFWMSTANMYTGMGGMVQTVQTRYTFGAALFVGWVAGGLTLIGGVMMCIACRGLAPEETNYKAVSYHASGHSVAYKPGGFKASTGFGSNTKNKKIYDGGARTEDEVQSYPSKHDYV
The assay is described as follows: flow cytometry (iQue) on cells, antibody from 100 nM in 5-fold steps; cell line not named in Example 5. The method, then: The cells at logarithmic growth phase were taken, blocked with 3% BSA for 30 minutes, plated at 5×10⁴ cells/100 μL into a U-shaped 96-well plate, centrifuged at 1100 rpm for 3 minutes, the supernatant was discarded, the cells were gently patted and loosed, 50 μL of antibody diluted according to the series was added to each well (antibody concentration starts from 100 nM, 5 times dilution in 8 series), incubated at 4° C. for 1 hour. After the incubation, 140 μL of 0.5% BSA was added to each well to wash 3 times, AF 647 APC anti-human secondary antibody was added with 30 μL/well and incubated at 4° C. for 40 minutes. After the incubation, 140 μL of 0.5% BSA was added to each well to wash 3 times, and finally resuspended each well with 50 μL PBS for iQue (Intellicyt, USA) detection (shown in Table 2).
In the case of B1, the midpoint of the response, the EC50, lay at 3.32 nM.

B2 displayed an EC50 of 1.03 nM.

In turn, B4 returned an EC50 of 2.07 nM.

Another assay has as its target T2, human Claudin 18.2. The assay is described as follows: flow cytometry (iQue) on HEK293-Claudin 18.2 cells, chimeric IgG1. Here is the method: as §1
In the case of B1, the EC50 worked out at 0.17 nM.

B2 returned an EC50 of 0.31 nM.

As to B3, the EC50 is 0.25 nM.

For the molecule B4, the concentration for a half-maximal effect (EC50) amounted to 0.37 nM.

Regarding B5, the EC50 was 0.22 nM.

B6 showed a concentration giving a half-maximal response (EC50) of 0.59 nM.
